Article doi:10.1101/2020.09.09.287508 (bioRxiv, 2020)

Biological target: SARS-CoV-2 S-ECD-hFc (extracellular domain of the spike (S) protein, hFc-tagged) (SARS-CoV-2, UniProt P0DTC2 14-1213)
Experiment: flow cytometry on cells

Binder	Kd [nM]
ASGR1 (receptor) MTKEYQDLQHLDNEESDHHQLRKGPPPPQPLLQRLCSGPRLLLLSLGLSLLLLVVVCVIGSQNSQLQEELRGLRETFSNFTASTEAQVKGLSTQGGNVGRKMKSLESQLEKQQKDLSEDHSSLLLHVKQFVSDLRSLSCQMAALQGNGSERTCCPVNWVEHERSCYWFSRSGKAWADADNYCRLEDAHLVVVTSWEEQKFVQHHIGPVNTWMGLHDQNGPWKWVDGTDYETGFKNWRPEQPDDWYGHGLGGGEDCAHFTDDGRWNDDVCQRPYRWVCETELDKASQEPPLL	94.8
KREMEN1 (receptor) ARPAPSPGLGPECFTANGADYRGTQNWTALQGGKPCLFWNETFQHPYNTLKYPNGEGGLGEHNYCRNPDGDVSPWCYVAEHEDGVYWKYCEIPACQMPGNLGCYKDHGNPPPLTGTSKTSNKLTIQTCISFCRSQRFKFAGMESGYACFCGNNPDYWKYGEAASTECNSVCFGDHTQPCGGDGRIILFDTLVGACGGNYSAMSSVVYSPDFPDTYATGRVCYWTIRVPGASHIHFSFPLFDIRDSADMVELLDGYTHRVLARFHGRSRPPLSFNVSLDFVILYFFSDRINQAQGFAVLYQAVKEELPQERPAVNQTVAEVITEQANLSVSAARSSKVLYVITTSPSHPPQTVPGSNSWAPPMGAGSHRVEGWTVYGLATLLILTVTAIVAKILLHVTFKSHRVPASGDLRDCHQPGTSGEIWSIFYKPSTSISIFKKKLKGQSQQDDRNPLVSD	19.3
